The source of these data is paper PMC5473857.

For the assay, the target named is FtsZ-F268C labeled with fluorescein 5-maleimide (donor) or tetramethylrhodamine 5-maleimide (acceptor) (E. coli) (UniProt P0A9A6).

In turn, “N-terminally truncated ZipA (26-328) from E. coli (from UniProt P77173 26-328) (domain or fragment)” returned an FRET assay of subunit exchange of FtsZ protofilaments at steady state with ZipA, pH 6.5: reaction time τ (13.1 s for FtsZ alone) of 25.2 s.
